# Where two headings read alike, the source gives them in different places.
# T1: cynomolgus ALK-1 cell surface (cynomolgus monkey)
# T1 chain: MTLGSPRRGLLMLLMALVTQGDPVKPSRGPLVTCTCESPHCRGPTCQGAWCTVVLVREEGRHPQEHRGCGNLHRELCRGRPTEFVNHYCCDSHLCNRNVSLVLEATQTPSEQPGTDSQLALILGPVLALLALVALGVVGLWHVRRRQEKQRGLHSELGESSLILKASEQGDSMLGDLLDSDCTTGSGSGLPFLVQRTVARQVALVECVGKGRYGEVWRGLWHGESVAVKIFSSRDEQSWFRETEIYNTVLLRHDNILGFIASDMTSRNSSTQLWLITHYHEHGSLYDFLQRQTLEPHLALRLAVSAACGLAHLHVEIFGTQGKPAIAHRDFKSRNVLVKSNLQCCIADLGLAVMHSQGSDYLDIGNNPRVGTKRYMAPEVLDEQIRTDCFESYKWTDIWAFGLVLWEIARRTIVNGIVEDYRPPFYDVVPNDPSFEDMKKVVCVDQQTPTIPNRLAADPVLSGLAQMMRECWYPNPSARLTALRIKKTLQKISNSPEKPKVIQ
# T2: rat ALK-1 cell surface (rat, UniProt P80203)
# T2 chain: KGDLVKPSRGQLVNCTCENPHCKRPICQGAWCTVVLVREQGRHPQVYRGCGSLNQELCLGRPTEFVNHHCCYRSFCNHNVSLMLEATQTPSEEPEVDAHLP
# T3: cynomolgus ALK-1/Fc (cynomolgus monkey)
# T3 chain: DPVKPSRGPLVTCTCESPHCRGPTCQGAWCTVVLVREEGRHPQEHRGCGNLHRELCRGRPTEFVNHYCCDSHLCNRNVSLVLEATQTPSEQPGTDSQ
# B1: 1.12.1 (antibody, V domains shown)
# VH: QVQLQESGPGLVKPSQTLSLTCTVSGGSMSSGEYYWNWIRQHPGKGLEWIGYIYYSGSTYYNPSLKSRVTISVDTSKNQFSLKLSSVTAADTAVYYCARESVAGFDYWGQGTLVTVSS
# VL: not shown
# B2: 1.162.1 (antibody, V domains shown)
# VH: QVQLQESGPGLVKPSQTLSLICTVSGGSISSGEYYWSWIRQHPGKGLEWIGYIYYSGSTYYNPSLKSRLTISVDTSKNQFSLKLSSVTAADTAVYYCAREGIGAFDIWGQGTMVTVSS
# VL: EIVLTQSPGTLSLSPGERATLSCRASQSVSSSYLAWYQQKPGQAPRLLIYGASSRATGIPDRFSGSGSGTDFTLTIIRLDPEDFAVYYCQRYGSSPITFGQGTRLEIK
# B3: 1.14.2 (antibody, V domains shown)
# VH: QVQLQESGPGLVKPSETLSLTCTVSGGSVSSGDYYWNWIRQPPGKGLEWIGYIYYSGSTNYNPSLKSRVTISVDTSKNQFSLKLSSVTAADTAVYYCAREAVSAFDYWGQGTLVTVSS
# VL: EIVLTQSPGTLSLSPGERATLSCRASQSVSSTYLAWHQQKPGQAPRLLIYGVSSRASGVPDRFSGSGSGTDFTLTISRLEPEDFAVYYCQQYGSSPITFGQGTRLEIK
# B4: 4.62.1 (antibody, V domains shown)
# VH: QVQLQESGPGLVKPSQTLSLTCTVSGGSISSGDYYWNWIRQHPGKGLEWIGYIYYSGSTYYNPSLKSRVTISVDTSKNQFSLKLSSVTAADTAVYYCARESTDGMDVWGQGTTVTVSS
# VL: not shown
# B5: 4.24.2 (antibody, V domains shown)
# VH: QVQLQESGPGLVKPSQTLSLTCTVSGGSISSNDYYWNWIRQHPGKGLEWIGYIYYSGSTYYNPSLKSRVTISVDTSKNQFSLKLSSVTAADTAVYYCARESTDGMDVWGQGTTVTVSS
# VL: ENVLTQSPGTLSLSPGERATLSCRASQSVSSNYLAWYQQKPGQAPRLLIYGASSGATGIPDRFSGSGSGTDFTLTISRLEPEDFAVYYCQHYGSSPITFGQGTRLEIK
# B6: 4.68.1 (antibody, V domains shown)
# VH: QVQLQESGPGLVKPSQTLSLTCTVSGGSISSGDYYWNWIRQHPGKGLEWIGYIYYSGSTYYNPSLKSRVTISVDTSKNQFSLKLSSVTAADTAVYYCAREDIAGFDPWGQGTLVTVSS
# VL: not shown
# B7: 4.72.2 (antibody, V domains shown)
# VH: QVQLQESGPGLVKPSQTLSLTCTVSGGSISSGEYYWSWIRQHPGKGLEWIGYIFYSGSTYYNPSLKSRVTISLDTSKNQFSLKLSSVTAADTAVYYCARESTDGMDVWGQGTTVTVSS
# VL: EIVLTQSPGTLSLSPGERATLSCRASQSVSSSYLAWYQRKPGQAPRLLIYGVSSRATGIPDRFSGSGSGTDFTLTISRLEPEDFAVYYCQQYGSSMITFGQGTRLEIK
# B8: 1.183.2 (antibody, V domains shown)
# VH: QVQLQESGPGLVKPSETLSLTCTVSGGSISSYYWSWIRQPPGKGLEWIGYIYYSGSTNYNPSLKSRVTISVDTSKNQFSLKLSSVTAADTAVYYCAREDDSSGCPYFDYWGQGTLVTASS
# VL: EIVMTQSPATLSVSPGERATLSCRASQSVSSNLAWYQQKPGQAPRVLIYGASTRATGIPVRFSGSGSGTEFTLTISSLQSEDFAVYYCQQYNNWPFTFGPGTKVDIK
# B9: 4.38.1 (antibody, V domains shown)
# VH: QVQLQESGPGLVKPSQTLSLTCTVSGGSISSGDYYWSWIRQHPGKGLEWIGYIYYSGSTYYNPSLKSRVTISIDTSKNQFSLKLSSVTAADTAVYYCARERDYGGGFDYWGQGTLVTVSS
# VL: not shown
# B10: 5.13.1 (antibody, V domains shown)
# VH: QVQLQESGPGLVKPSQTLSLTCTVSGGSISSGDYYWNWIRQHPGKGLEWIGYIYYSGSTYYNPSLKSRVTISVDTSKNQFSLKLSSVTAADTAVYYCAREGLEAFDIWGQGTMVTDSS
# VL: EIVLTQSPGTLSLSPGERATLSCRASQSVSSSYLAWYQQKPGQAPRLLIYDASSRATGIPDRFSGSGSGTDFTLTISRLEPEDFAVYYCQHYGSSLLTFGGGTKVEIK
# B11: 4.68.2 (antibody, V domains shown)
# VH: QVQLQESGPGLVKPSQTLSLTCTVSGGSISSGDYYWNWIRQHPGKGLEWIGYIYYSGSTYYNPSLKSRVTISVDTSKNQFSLKLSSVTAADTAVYYCAREDIAGFDPWGQGTLVTVSS
# VL: not shown
# B12: 4.58.2 (antibody, V domains shown)
# VH: QVQLQESGPGLVKPSQTLSLTCTVSGGSISSGDYYWNWIRQHPGKGLEWIGYIYYSGSTYYNPSLKSRVTISVATSKNQFSLKLSSVTAADTAVYYCAREATEGFDYWGQGTLVTVSS
# VL: EIVLTQSPGTLSLSPGERATLSCRASQSVSTTYLAWYQQKPGQAPRLLIYGASSRATGIPDRFSGSGSGTDFTLTISRLEPEDFALYYCQHYGTSSITFGQGTRLEIK
# B13: 4.72.1 (antibody, V domains shown)
# VH: QVQLQESGPGLVKPSQTLSLTCTVSGGSISSGEYYWSWIRQHPGKGLEWIGYIFYSGSTYYNPSLKSRVTISLDTSKNQFSLKLSSVTAADTAVYYCARESTDGMDVWGQGTTVTVSS
# VL: EIVLTQSPGTLSLSPGERATLSCRASQSVSSSYLAWYQRKPGQAPRLLIYGVSSRATGIPDRFSGSGSGTDFTLTISRLEPEDFAVYYCQQYGSSMITFGQGTRLEIK
# B14: 1.12.1(D19A) (antibody, V domains shown)
# VH: QVQLQESGPGLVKPSQTLSLTCTVSGGSMSSGEYYWNWIRQHPGKGLEWIGYIYYSGSTYYNPSLKSRVTISVDTSKNQFSLKLSSVTAADTAVYYCARESVAGFDYWGQGTLVTVSS
# VL: not shown
# B15: 5.13.3 (antibody, V domains shown)
# VH: QVQLQESGPGLVKPSQTLSLTCTVSGGSISSGDYYWNWIRQHPGKGLEWIGYIYYSGSTYYNPSLKSRVTISVDTSKNQFSLKLSSVTAADTAVYYCAREGLEAFDIWGQGTMVTDSS
# VL: EIVLTQSPGTLSLSPGERATLSCRASQSVSSSYLAWYQQKPGQAPRLLIYDASSRATGIPDRFSGSGSGTDFTLTISRLEPEDFAVYYCQHYGSSLLTFGGGTKVEIK
# B16: 4.24.1 (antibody, V domains shown)
# VH: QVQLQESGPGLVKPSQTLSLTCTVSGGSISSNDYYWNWIRQHPGKGLEWIGYIYYSGSTYYNPSLKSRVTISVDTSKNQFSLKLSSVTAADTAVYYCARESTDGMDVWGQGTTVTVSS
# VL: ENVLTQSPGTLSLSPGERATLSCRASQSVSSNYLAWYQQKPGQAPRLLIYGASSGATGIPDRFSGSGSGTDFTLTISRLEPEDFAVYYCQHYGSSPITFGQGTRLEIK
# Columns and labels:
# [1] = molecular target: T1, cynomolgus ALK-1 cell surface; assay: FACS
# [2] = molecular target: T1, cynomolgus ALK-1 cell surface; assay: FACS
# rat ALK-1 cell surface = molecular target: T2, rat ALK-1 cell surface; assay: FACS
# cynomolgus ALK-1/Fc = molecular target: T3, cynomolgus ALK-1/Fc; assay: SPR, bivalent
# human ALK-1/Fc = human ALK-1/Fc (human, UniProt P37023); assay: SPR, bivalent
Binder,Kd [2],Kd (cynomolgus ALK-1/Fc),Kd (human ALK-1/Fc),also measured
B1,2 nM,–,–,Kd [1]: 2 nM; Kd (rat ALK-1 cell surface): > 100 nM
B2,3 nM,0.062 nM,0.018 nM,–
B3,–,0.28 nM,0.076 nM,–
B4,0.78 nM,0.019 nM,–,–
B5,–,0.43 nM,0.07 nM,–
B6,9 nM,–,–,–
B7,–,0.28 nM,0.073 nM,–
B8,–,1.8 nM,0.22 nM,–
B9,–,0.15 nM,0.1 nM,–
B10,1.6 nM,–,–,–
B11,–,0.32 nM,–,–
B12,–,0.13 nM,0.04 nM,–
B13,3.8 nM,–,–,–
B14,–,–,–,Kd [1]: 3.8 nM
B15,–,0.19 nM,–,–
B16,3.1 nM,–,–,–
